Laboratory results as given in a protein production outcome set (Wang et al. 2014).

Test: label from the status in PepcDB records

## MDKSIIQLVDELPSDNITVKVLNALDYVAPGQWQNLVGFDNTIRAVTGETDARVIQKIRDRATSLYNDPQQGYQSAVKLYQTIDKADTAMATAALANKVGEKIGFLSFLSNITPKADVTQSIDLVSKIAIEIIVFCKLNGIPQPNPQEFANSLANNYQDASLIRMVALVCLDGILPLGPDFLSKIQGIISGAESNSITQNPVFLAVNSSLPGSNPTDKLGFINQGFNAVQGWMNNLVTKTGITPQSISSHLGNFIQIADDNLDFVAAFLDQTTNYFEHTGIQSVARRLILKAHTLVKEEIKQETTQPIQDSSSAVKSDTSQYAVSKKIEVWDEEEEDWYQATIEKVQDDQFFINYIGYGSSHNEWVGKDDIRATDYASSDANGYAVGKKVKCWSDEEETWYTATIEKIQGNQYFIHYTGYDSSYDEWVNSDDIS
  protein production: failed

## MDKVFAPWRIEWVEREKTNPDVDCVFCAFQAQDDDRANNLVARSDHAFVLLNNYPYNPGHVMVIPHTHTGEYGDLDDKTLLDHGRLKQRTFDALETALSPDAFNAGLNLGGSAAGGSIDDHLHTHVVPRWNGDTNFMPVISDTKVIVEAVEETYDRLYAAFASQDGTTAPEDGAVRIE
  protein production: failed

## MDLALAQVDSTVSGLYDALDLIGVLLNGIIGGTIARQRGYDIIGFLFLALFSALGGGMIRDMLIQQGTVAAIDNQIYLALAFSGALIAMAVNFKGRVWELFKVHGDAIVLGVWAVTGSVKAMNAGVAPLPSIFMGVLTAVGGGMVRDVATGQTPTIFGGGTLYAVPATLSATSMVIFHSFDQVILGMIISPFLGIALAVTAYWCGWVIPVNTDFAPVNLTVSQLRAMLSKAERKDKDQK
  protein production: failed

## MDLDPTLLTWAFVVGGALLMLIEAVVPGGIAFFLGIGGVVVGGLRALGLLVDPLSSVVTWVFLSTGLTIALRPLMLRFVQGDVSLAMTDEDAEAMGETVTVVEAVGPESPGRIRFRGATWDARTLEGRLPDGAEAQLLYRDNLTWVVEPADHADLDAELSAAIGSDVSEGDANRSPSTDDTTSDDSGLGYDPSARSSS
  protein production: failed

## MDLENNNNTPLTGKQAEKCAKKRKCVITLDEKQVESKRLKKEESNVEATSRPPAQSPKKRLHLNGKPMQNKDLNFKYGNYKHYYGKRILNKDFHDIRLDVLGTQPDLFRNKQLLDIGCNSGHLSIQIARKFEVKSLVGLDIDRGLINDAQKTVSHLKRHATPGQGIPHIQFVHGNYVLEDDVLLEIERPQFDVILCLSVTKWIHLNFCDSGLKQAFRRMYLQLRPGGKLILEPQSFDGYKRRKKLSEQIRDNYNAIKFRPDHFTEYLLSPEVGFAEMKLMGIPEHCKVGFKRPIQIFTKS
  protein production: failed

## MDLFVMVVGASGIGDGGEQKYNYKLRAWTNEDDPRQTKIVTTNADPEFREVLHLPQNMASSFLNLELFSVNSADTDAFFIGRANTALPMKTNANVYRKIKLQNLDTSGNIVTVGYLEVYLGLETG
  protein production: failed

## MDLKILSLATDKTTDKLQEFLQTLKDDDLASLLQNQAVKGRAVGTLLRAVLKGSPCSEEDGALRRYKIYSCCIQLVESGDLQQDVASEIIGLLMLEVHHFPGPLLVDLASDFVGAVREDRLVNGKSLELLPIILTALATKKEVLACGKGDLNGEEYKRQLIDTLCSVRWPQRYMIQLTSVFKDVCLTPEEMNLVVAKVLTMFSKLNLQEIPPLVYQLLVLSSKGSRRSVLDGIIAFFRELDKQHREEQSSDELSELITAPADELYHVEGTVILHIVFAIKLDCELGRELLKHLKVALRCF
  protein production: failed

## MDLLEYQVKEWFGEIGIPVLPSQRIDHPTDLKRLKIRYPIVLKSQVHAGEREKVGGVRMVETTIDAIAAAQTIFNLSIWGELPEVLLAESKYNSHQEFYLAVVLDTAVCRPVLLGSTEADIDLELADQKMQYVVVEQEFSPFYARRLALKMGLQGTLMQSVSTVLEKMYQLFVQKDLDLVEINPLGVNLAGEVMALNGKVGVNERAIGRHPEIAAMAAKIIPRHYDKSFSNGRDWNNLEKQRRIGILGNGTGSILATYDLVASGGGKPGICLNLRHAAITDLSPTKFGDRLTKGLNTLAADKNTQVILINLLGSIPQPEEAAQAIAQFIQQNKGEYPPSIAKSNGKNLSQHQSPQLVIRLAGSELNAAKEVLAALQTHEEGLILVEDLDEAVATAVRLTKSHAYKKVS
  protein production: failed

## MDLLLKGGWVVTQERVEQADIAVEGEKIAAIGPDLEARAAAVRDVTGKYILPGAIDAHVHYQMPIGELLTADDWFTGTRLAACGGVTTVIDYAEPAGPAEPLTEALAKRLEEAREQACVDYGLHQVVLPGQEEDTGELAKVIEQGVTSFKVFTTYKQCLGYAAIGRLLKQARRLGALVTVHCEDHDLVTARRRELEATGQTDPAYHANSRPAAAEVKAIEKVIRQAAAAGAPVYIVHVSTGGGAELIAAARARGQQVFGETCPHYLLLTEERYAGPDSRLFLMCPPLRTVKDNRILWQHLASGDLQVVATDHCSYSPEQKAAGTAFYNTPSGVPGTETLLPLLYSYGVRQGRLTLPQMVRVLATNPARLFGLYPRKGCLAPGSDADLVVFDPSQEVILKASDLHSAAAYTIFEGFALQGYVEATYLRGRLIYDLGRFLGRAGQGEFIPGKITVL
  protein production: failed

## MDLLRGSDYVGDGAWFRAEALQEIGAFAEAPDADSYDALLRIHDRYGAMVIGHIPDMLLHAPSRGTADGSGQRAALDAHLARNGGGADIEAGPAAGTRRIRYPAPEQARLSIIVADAGDGFHLSPCIDALQASLGGCACEILAIAADGEPGDAAKLLRCDPGLGLAARFQLGAEAASGDFLLFIDSRVELAQPDGLQALLGLAARPEVGAAAPRLLRPDGEALWRGPLLIGAGEGAAALFCDAGASEAGHLNRQAVEHNPGALRLECLLMAKAFYQQIGGMDASLPTLLDTAVDLGLRIRAAGRLPVWTPFVSARRHGALDVSEPPETCDADALSLRWNGWLGQDPAHNRHLSLAADKAFQIEDVYSAQWDASFHERTRVLALPAESKATEARMASPFRILQEDCQCQLTQIPAGQRLPSAGEIERMAPDALLMSARFDSASLAWLRGYRQRRPDVLAVLMLDKLDFGAGTTHRYGHSLLQAMAGMADRVIVPTESLYRMALAFADDVRLVPDGLEEARWFELQSLRRVGKKPRVGWVGSAAEAPDLLMLSGIILATAAELDWIVLGDCPEVLKPCLAEYHAFDLSSDDYPTRLASLSLDMAVMPKAATLANETGSPLRMFEFGALGVPVICSAVGELGLSPAPVARVENDVSSWGEALRELARDAAAAAQAGDGLRAWVRENCGLKRHLPLWQQAISR
  protein production: failed

## MDLNRMGKDEYYVQITVDGKEVHSKADNGQKYKDYEYKLTGFDKDGKEKELEFTAQKNLRKEAFLRVYHSDKKGVSAWEEVKKDELPAKVKEKLGVKLEHHHHHH
  protein production: not failed

## MDLPVMPPVKPMLAKSVAKIPPDMQYEAKWDGFRAIVFRDGTEVELGSRTGKPLTRYFPELVEALRDRLPERCVIDGEIVIARDGRLDFDALTERIHPAESRVRMLAEKTPASFVAFDLLALADDSLLDTPLTERRALLESALSGVTAPVHVAPATTDREVAEQWFEQYEGAGLDGVIAKPLTLRYRQDERAMFKVKHERTADVVVAGYRLHKSGPVVGSLLLGLYDDRGALQHVGVSAAFPMKRRAELVEELEPLRMEDAAGHPWAAWSNEAAHETARLPGAPSRWSGKKDLSWVPLRPERVAEVAYDHMENGARFRHTARFRRWRPDRTPESCTYAQLEEPVSYDLTEILGSRGLEHHHHHH
  protein production: not failed

## MDLRAIAMGLAFAFMWSSAFSSARIIVADASPLFSLACRFLISGLLGVIIARAMGQTWRLTRNQWKATIVFGICQNALYLGLNFYAMQTVEASVAAIIASTMPLLVALASWGLFGERLPALGIAGLLAGFLGVALIMGARIGAGVDLFGVLLCGLGALALAAATLALRGATSGGNFMMVVGLQMLVGSAVLFLATPIFETVHVTPTLPLALAFAYTTLVPGLTATFVWVLLLNRIGAIRAATFHFLNPVFGVAIAAALLGERLGALDAIGVAITTAGILAVQLSRQASARKP
  protein production: failed

## MDLWDRFCVNLHTRKITLEDESQKRSMDLRLLHGVAYGHSWFGKWGYRFCSGSFGVEEHHYHRAIAFLTSISLVDDITANFRENKANLNIGDIVRCYRDMSEIQLTTLQDLLRFMLTIKSRAPPIRIPIGKIEAPSVVLPSMKAYGTRACPQVKQCPKDKEKSVKCRKFALPLPLQACFHFPFRSSMTLLSGSFRS
  protein production: not failed
